Measurements reported in US20210380703A1 (RIGEL PHARMACEUTICALS, published 2021).
Where a chain is given by its changes, count along the chain named.

What was measured:
[1] = target: T1, biotinylated goat anti-human kappa light chain; test: ELISA, positive control
T1 construct: positive control of the ELISA
In short: (§1)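 Monoclonal antibodies were first applied to human or mouse ACVR2A, alongside biotinylated goat anti-human kappa light chain (positive control) and human Fc (negative control); binding was then determined by ELISA.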

[2] = target: T2, human ACVR2A (human, UniProt P27037 20-135, limits assumed); test: ELISA
T2 construct: also called activin receptor, type II A
T2 sequence (P27037 20-135 limits assumed): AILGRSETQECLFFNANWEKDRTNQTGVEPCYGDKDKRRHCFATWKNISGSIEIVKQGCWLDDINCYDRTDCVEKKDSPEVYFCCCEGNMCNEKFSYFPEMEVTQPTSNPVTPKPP
In short: as §1

[3] = target: mouse ACVR2A (mouse, UniProt P27038 20-135, limits assumed); test: ELISA
Sequence of mouse ACVR2A (P27038 20-135 limits assumed): as the sequence (P27037 20-135 limits assumed) above, with K20R, V73I counted along it
In short: as §1
Note: test concentration or dose not given here.

B1: 367_E08 (antibody, V domains shown)
VH: EVQLLESGGGLVQPGGSLRLSCAASGFTFSDYGMNWVRQAPGKGLEWVASINYNGGYTSYADSVKGRFTISRDNSKNTLYLQMNSLRAEDTAVYYCARAATWHDTHLDYWGQGTLVTVSS
VL: DIQMTQSPSSLSASVGDRVTITCRASQSILSYLNWYQQKPGKAPKLLIYATTSRASGVPSRFSGSGSGTDFTLTISSLQPEDFATYYCQQSYDNPLTFGGGTKVEIK
notes: Group II
- optical density [1]: 3.43 OD
- optical density [2]: 2.04 OD
- optical density [3]: 2.37 OD

B2: 368_A12 (antibody, V domains shown)
VH: B1 VH with S30D, D31S, G33S, N35H, A49S, G55S, T58K, S59G, T101N, H106A
VL: B1 VL with S31T, L47V, T51A, N94S
notes: Group I
- optical density [1]: 3.69 OD
- optical density [2]: 3.01 OD
- optical density [3]: 2.78 OD

B3: 369_A04 (antibody, V domains shown)
VH: B1 VH with S30D, D31S, N35H, T58K
VL: B1 VL with L30V, L33V, L47V, T51A, R54L, N94L
notes: Group II
- optical density [1]: 3.5 OD
- optical density [2]: 2.76 OD
- optical density [3]: 2.86 OD

B4: 368_C07 (antibody, V domains shown)
VH: B1 VH with D31S, N35H, S50G, G55S
VL: B1 VL with L30V, L33V, L47V, T51A, D93E
notes: Group II
- optical density [1]: 3.31 OD
- optical density [2]: 2.58 OD
- optical density [3]: 2.37 OD

B5: 368_C09 (antibody, V domains shown)
VH: B1 VH with D31S, G33S, N35H, A49S, S50N, S59G, T101N
VL: B1 VL with S31T, L33V, T51A, R54L, N94L
notes: Group I
- optical density [1]: 3.46 OD
- optical density [2]: 2.48 OD
- optical density [3]: 2.61 OD

B6: 368_E08 (antibody, V domains shown)
VH: B1 VH with S30D, D31S, N35H, S50N, G55S, S59G
VL: B1 VL with L33V, L47V, T51A, R54L, A55H, D93E, N94T
notes: Group II
- optical density [1]: 3.5 OD
- optical density [2]: 2.27 OD
- optical density [3]: 2.67 OD

B7: 367_F08 (antibody, V domains shown)
VH: B1 VH with D31S, N35H, A49S, G55S
VL: B1 VL with L33V, L47V, T51A, Y92N, D93E, N94L
notes: Group II
- optical density [1]: 3.54 OD
- optical density [2]: 2.08 OD
- optical density [3]: 2.19 OD

B8: 367_H08 (antibody, V domains shown)
VH: B1 VH with S30D, D31S, A49S
VL: B1 VL with S31T, L33V, T51A, A55H, D93N, N94L
notes: Group II
- optical density [1]: 3.54 OD
- optical density [2]: 2.27 OD
- optical density [3]: 2.47 OD

B9: 368_D09 (antibody, V domains shown)
VH: B1 VH with S30D, D31S, N35H, S50G, G55S, T58K, T101N
VL: B1 VL with L30V, L33V, T51A, R54L
notes: Group I
- optical density [1]: 3.46 OD
- optical density [2]: 2.19 OD
- optical density [3]: 2.11 OD

B10: 368_B08 (antibody, V domains shown)
VH: B1 VH with S30D, D31S, A49S, T101N
VL: B1 VL with S31T, L33V, L47V, T51A, D93E
notes: Group I
- optical density [1]: 3.21 OD
- optical density [2]: 1.98 OD
- optical density [3]: 2.18 OD

B11: 368_A06 (antibody, V domains shown)
VH: B1 VH with S30D, D31S, G33S, N35H, S50G, G55S, T58K, S59G, T101N
VL: B1 VL with L33V, T51A, A55H, D93N, N94S
notes: Group I
- optical density [1]: 3.28 OD
- optical density [2]: 2.25 OD
- optical density [3]: 2.52 OD

B12: 368_D07 (antibody, V domains shown)
VH: B1 VH with S30D, D31S, N35H, S59G
VL: not shown
notes: Group II
- optical density [1]: 3.26 OD
- optical density [2]: 2.2 OD
- optical density [3]: 2.46 OD

B13: 368_H03 (antibody, V domains shown)
VH: B1 VH with S30D, G33S, N35H, S59G
VL: B1 VL with L33V, L47V, T51V, A55H, D93S
notes: Group II
- optical density [1]: 3.56 OD
- optical density [2]: 2.44 OD
- optical density [3]: 2.73 OD

B14: 368_D06 (antibody, V domains shown)
VH: B1 VH with D31S, A49S, S50N, S59G
VL: B1 VL with L33V, L47V, T51A, A55H, D93E
notes: Group II
- optical density [1]: 3.41 OD
- optical density [2]: 2.03 OD
- optical density [3]: 2.11 OD

B15: 367_F10 (antibody, V domains shown)
VH: B1 VH with S30D, D31S, A49S, S50G, G55S
VL: B1 VL with S31T, T51A, N94T
notes: Group II
- optical density [1]: 3.42 OD
- optical density [2]: 2.21 OD
- optical density [3]: 2.36 OD

B16: 368_D03 (antibody, V domains shown)
VH: B1 VH with G33S, N35H
VL: B1 VL with L30I, S31T, L33V, N94L
notes: Group II
- optical density [1]: 3.49 OD
- optical density [2]: 2.39 OD
- optical density [3]: 2.55 OD

B17: 369_A12 (antibody, V domains shown)
VH: B1 VH with D31S, G33S, N35H, G55S, S59G
VL: B1 VL with S31T, T51A, A55H, N94L
notes: Group II
- optical density [1]: 3.72 OD
- optical density [2]: 3.17 OD
- optical density [3]: 3.24 OD
